Consider 2 molecules from PMC4508888.

Among the targets are EGFP-Myo1b motor (rat); EGFP-Myo1b (rat) (UniProt Q05096); EGFP-Myo1b-Tail (rat); Flag-EphB2-KD (UniProt P54763).
Experiment in all cases: co-IP

On to “Flag-EphB2 (from UniProt P54763 19-986) (receptor)”, for which, in the experiment with EGFP-Myo1b motor (rat), the percent of Flag-EphB2 pulled down against EGFP-Myo1b turned out to be 50%. This molecule also had a percent of Flag-EphB2 co-precipitated with EGFP-Myo1b after genistein treatment in the experiment with EGFP-Myo1b (rat) of 29%. The fold of Flag-EphB2 pulled down against EGFP-Myo1b with EGFP-Myo1b-Tail (rat) was > 2 fold.

B1: EGFP-Myo1b (natural protein)
chain: MAKKEVKSSLLDNMIGVGDTVLLEPLNEETFIDNLKKRFDHNEIYTYIGSVVISVNPYRSLPIYSPEKVEDYRNRNFYELSPHIFALSDEAYRSLRDQDKDQCILITGESGAGKTEASKLVMSYVAAVCGKGAEVNQVKEQLLQSTPVLEAFGNAKTVRNDNSSRFGKYMDIEFDFKGDPLGGVISNYLLEKSRVVKQPRGERNFHVFYQLLSGASEELLHKLKLERDFSRYNYLSLDSAKVNGVDDAANFRTVRNAMQIVGFSDPEAESVLEVVAAVLKLGNIEFKPESRMNGLDESKIKDKNELKEICELTSIDQVVLERAFSFRTVEAKQEKVSTTLNVAQAYYARDALAKNLYSRLFSWLVNRINESIKAQTKVRKKVMGVLDIYGFEIFEDNSFEQFIINYCNEKLQQIFIELTLKEEQEEYIREDIEWTHIDYFNNAIICDLIENNTNGILAMLDEECLRPGTVTDETFLEKLNQVCATHQHFESRMSKCSRFLNDTTLPHSCFRIQHYAGKVLYQVEGFVDKNNDLLYRDLSQAMWKAGHALIKSLFPEGNPAKVNLKRPPTAGSQFKASVATLMKNLQTKNPNYIRCIKPNDKKAAHIFSESLVCHQIRYLGLLENVRVRRAGYAFRQAYEPCLERYKMLCKQTWPHWKGPARSGVEVLFNELEIPVEEYSFGRSKIFIRNPRTLFQLEDLRKQRLEDLATLIQKIYRGWKCRTHFLLMKRSQVVIAAWYRRYAQQKRYQQIKSSALVIQSYIRGWKARKILRELKHQKRCKEAATTIAAYWHGTQARKERRRLKDEARNKHAIAVIWAFWLGSKARRELKRLKEEARRKHAVAVIWAYWLGLKVRREYRKFFRANAGKKIYEFTLQRIVQKYLLEMKNKMPSLSPIDKNWPSRPYLFLDSTHKELKRIFHLWRCKKYRDQFTDQQKLIYEEKLEASELFKDKKALYPSSVGQPFQGAYLEINKNPKYKKLKDAIEEKIIIAEVVNKINRANGKSTSRIFLLTNNNLLLADQKSGQIKSEVPLVDVTKVSMSSQNDGFFAVHLKEGSEAASKGDFLFSSDHLIEMATKLYRTTLSQTKQKLNIEISDEFLVQFRQDKVCVKFIQGNQKNGSVPTCKRKNNRLLEVAVP
The molecule B1 came in with a percent of EGFP-Myo1b co-precipitated against Flag-EphB2 with Flag-EphB2-KD of 16%.
